Results: US20070056058A1 (TARGETED GROWTH, published 2007)
Positions count from the first letter of the chain named. Names and notes keep the numbering of the source.

Experiments:
[1] = biological target: AtcyclinD2;1/AtCDKA active kinase complex (Arabidopsis) (UniProt P42752); experiment: cell-based or functional assay
[2] = biological target: T1, AtcyclinD2;1/AtCDKA active kinase complex (Arabidopsis, UniProt P42752 1-361; P24100 1-294); experiment: cell-based or functional assay
[3] = biological target: T1, AtcyclinD2;1/AtCDKA active kinase …; experiment: in vitro binding experiments
[4] = biological target: T2, Arabidopsis cyclin D2;1 (AtcyclinD2;1), FLAG tagged (Arabidopsis, UniProt P42752 1-361); experiment: in vitro binding, graded (column Cyclin binding)
T2 construct: Made in Sf9 insect cells from the pAcHLT transfer vector; used as insect cell protein extract
T2 sequence: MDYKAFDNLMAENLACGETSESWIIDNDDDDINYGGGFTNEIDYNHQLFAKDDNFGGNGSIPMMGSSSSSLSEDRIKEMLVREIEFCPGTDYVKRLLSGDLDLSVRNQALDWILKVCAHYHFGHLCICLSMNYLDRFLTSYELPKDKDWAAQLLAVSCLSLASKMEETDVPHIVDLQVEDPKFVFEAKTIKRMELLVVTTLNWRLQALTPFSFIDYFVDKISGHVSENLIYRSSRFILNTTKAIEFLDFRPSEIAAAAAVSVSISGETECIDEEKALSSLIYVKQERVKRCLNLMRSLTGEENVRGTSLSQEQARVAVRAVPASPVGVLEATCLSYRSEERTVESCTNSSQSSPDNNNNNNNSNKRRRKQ

T1 sequence (P24100 other isoform, or with tags, fused parts or gaps limits assumed): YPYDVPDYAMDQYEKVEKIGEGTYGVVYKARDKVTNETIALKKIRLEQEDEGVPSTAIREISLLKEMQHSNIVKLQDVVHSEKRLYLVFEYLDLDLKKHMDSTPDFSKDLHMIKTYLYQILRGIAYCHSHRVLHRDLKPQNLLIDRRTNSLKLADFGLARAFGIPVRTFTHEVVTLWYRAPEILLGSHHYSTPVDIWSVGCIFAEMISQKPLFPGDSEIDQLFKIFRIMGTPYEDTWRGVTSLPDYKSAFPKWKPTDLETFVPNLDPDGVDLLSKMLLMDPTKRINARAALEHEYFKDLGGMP
Chain of AtcyclinD2;1/AtCDKA active kinase complex (Arabidopsis) (P24100 other isoform, or with tags, fused parts or gaps limits assumed): as above

BnKrp1 #462 (E129A, E130A, I131A, D132A), cyclin binding region mutant
IC50 (inhibitory concentration that reduces the kinase activity by 50%) [1]: 1.25 µg

BnKrp1 E164A; W165A, construct #555
kinase activity restored by 5 µg mutant in the presence of wild-type KRP1 [1]: 14%
kinase activity restored by 10 µg mutant in the presence of wild-type KRP1 [1]: 15%

BnKrp1 Y149A; F151A; F153A, construct #598
kinase activity restored by 5 µg mutant in the presence of 0.6 µg wild-type KRP1 [1]: < 55%
kinase activity restored by 10 µg mutant in the presence of wild-type KRP1 [1]: < 80%

ZmKRP4 (maize KRP, Genbank accession # AY986792)
IC50 of kinase inhibition [1]: 0.035 µg

B1: BnKRP1 wild type (Brassica napus Krp1), construct BnKrp #461 (other, not shown: small tags and cut ends)
chain: MVRKCRKTKGTVGASSTYMQLRSRRIVYRSEKASSSSSSCCASNNNGVIDLEEERDGETETSSCRRSSKRKLFENLREKESMENSQQIVAGFDSAVKESSDCCCSRRTSLSTTEEKGKSATEQPPTAVEIEDFFVEAEKQLHDNFKKKYNFDFEKEKPLEGRYEWVKL
IC50 (inhibitory concentration that reduces the kinase activity by 50%) [2]: 0.035 µg

B2: BnKrp1 F151A, construct #572 (other)
chain: B1 chain with F151A
notes: also called BnKrp1 #572; not shown: N-terminal 6xHis and poly-Myc tags of pET16b-5MYC
binding result [3]: binds
binding result [4]: binds

B3: BnKrp1 Y149A, construct #587 (other)
chain: B1 chain with Y149A
notes: also called BnKrp1 #587; not shown: N-terminal 6xHis and poly-Myc tags of pET16b-5MYC
binding result [3]: binds
